Experimental data reported in patent US20260242478A1 (published 2026).
Where no end group is shown, it is not given here.

Columns and labels:
[1] = target: T1, Anti-PSMA Fab (SEQ ID NOs: 19, 20); experiment: phage binding ELISA; clonal phage on plate-captured biotinylated PSMA Fab, anti-M13 HRP detection
T1 construct: Biotinylated and captured on neutravidin coated plates in the phage ELISA; also called 006 PSMA Fab
Procedure: (§1) Clonal phage were harvested as crude supernatants and screened via standard ELISAs. […] Prior to the addition of clonal phage. wells were incubated with blocking buffer and PSMA antigen or blocking buffer alone. Without washing or aspirating, clonal phage supernatants were then added to the wells and incubated for a short time. Wells were then washed followed by detection of bound phage using a horse radish conjugated anti-M13 antibody.

[2] = target: T1, Anti-PSMA Fab (SEQ ID NOs: 19, 20); experiment: phage binding ELISA; plate-captured PSMA Fab pre-incubated with PSMA antigen as competitor, anti-M13 HRP detection
Procedure: as §1

[3] = target: Anti-PSMA Fab (006 PSMA Fab); experiment: clonal phage ELISA on biotinylated PSMA Fab captured on neutravidin; PSMA antigen as competitor; anti-M13-HRP detection
Procedure: as §1

[4] = target: Anti-PSMA Fab (006 PSMA Fab); experiment: clonal phage ELISA on biotinylated PSMA Fab captured on neutravidin; bound phage detected with anti-M13-HRP; no PSMA antigen
Procedure: as §1

[5] = target: T2, PSMA Fab (006 PSMA Fab) (biotinylated (site not stated)); experiment: phage ELISA on captured PSMA Fab, wells pre-incubated with PSMA antigen as competitor
T2 construct: also called Anti-PSMA Fab

[6] = target: T2, PSMA Fab (006 PSMA Fab); experiment: phage ELISA, clonal phage on biotinylated PSMA Fab captured on neutravidin plate, anti-M13 HRP detection;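 further: crude clonal phage supernatants added to wells preincubated with PSMA antigen in blocking buffer or with blocking buffer only, giving a competition and a no-competitor control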
Procedure: as §1

Row | Binder | Anti-PSMA Fab (SEQ ID NOs: 19, 20) signal [1] | Anti-PSMA Fab signal in the presence of PSMA [2] | phage binding ELISA signal (Anti-PSMA Fab, wells pre-incubated with PSMA antigen) [3] | Phage binding ELISA signal, Anti-PSMA Fab [4] | further results
1 | THKWCIPVWMCEHQ (tested as crude clonal phage supernatant) [Phage-2297] | 1.5 | 0.0929 |  |  | 
2 | YDRLCIPMWMCSSV [Phage-2307] |  |  | 0.0715 | 1.48 | 
3 | PEKWCIPPWMCTNF (cysteine pairing not given here; also: displayed on bacteriophage by fusion to pIII) [Phage-2329] |  |  |  |  | phage binding ELISA signal (Anti-PSMA Fab pre-incubated with PSMA antigen) [5]: 0.065; Phage binding ELISA signal, Anti-PSMA Fab [6]: 1.45
4 | MDNWCTPPWMCHGF [Phage-2299] |  |  | 0.0898 | 1.49 | 
5 | IEKWCIPLWMCEMQ [Phage-2309] |  |  | 0.0726 | 1.48 | 
6 | SMKWCTPAWMCERL [Phage-2301] |  |  | 0.115 | 1.49 | 
7 | FEHWCTPEWMCLGM [Phage-2331] |  |  |  |  | phage binding ELISA signal (Anti-PSMA Fab pre-incubated with PSMA antigen) [5]: 0.0623; Phage binding ELISA signal, Anti-PSMA Fab [6]: 1.45
8 | IHMLCSPPWMCVGL (tested as crude clonal phage supernatant) [Phage-2294] | 1.5 | 0.0564 |  |  | 
9 | ELNWCTPPWMCNPM (tested as crude clonal phage supernatant) [Phage-2289] | 1.5 | 0.0786 |  |  | 
10 | EAKWCTPPWMCMSM [Phage-2305] |  |  | 0.0593 | 1.48 | 
11 | WENWCTPEWMCNGF (cysteine pairing not given here; also: displayed on bacteriophage by fusion to pIII) [Phage-2298] |  |  | 0.0767 | 1.49 | 
12 | DVMWCIPPWMCEHR (tested as crude clonal phage supernatant) [Phage-2295] | 1.5 | 0.106 |  |  | 
13 | FANWCTPSWMCNFT [Phage-2302] |  |  | 0.152 | 1.48 | 
14 | PEKWCIPDWMCTVY [Phage-2311] |  |  | 0.0815 | 1.48 | 
15 | VEKWCTPRWMCEGF (tested as crude clonal phage supernatant) [Phage-2287] | 1.51 | 0.0841 |  |  | 
16 | EVKWCTPSWMCSGL [Phage-2330] |  |  |  |  | phage binding ELISA signal (Anti-PSMA Fab pre-incubated with PSMA antigen) [5]: 0.06; Phage binding ELISA signal, Anti-PSMA Fab [6]: 1.45
17 | EWKWCTPPWMCQYE [Phage-2308] |  |  | 0.0874 | 1.48 | 
18 | LTKWCIPEWMCAVE (cysteine pairing not given here; also: displayed on bacteriophage by fusion to pIII) [Phage-2303] |  |  | 0.102 | 1.48 | 
19 | EFKMCIPQWMCQHQ [Phage-2312] |  |  | 0.0622 | 1.47 | 
20 | WVQWCIPPWMCEPS [Phage-2300] |  |  | 0.14 | 1.49 | 
21 | MEIWCKPAWMCEST [Phage-2310] |  |  | 0.0714 | 1.48 | 
22 | HVKWCTPAWMCVSN (tested as crude clonal phage supernatant) [Phage-2288] | 1.51 | 0.079 |  |  | 
23 | NSNWCIPSWMCADI (cysteine pairing not given here; also: displayed on bacteriophage by fusion to pIII, tested as crude clonal phage supernatant) [Phage-2292] | 1.5 | 0.0741 |  |  | 
24 | VEKWCIPPWMCVNS (tested as crude clonal phage supernatant) [Phage-2293] | 1.5 | 0.0666 |  |  | 
25 | VDKQCRPAWMCEIW (tested as crude clonal phage supernatant) [Phage-2290] | 1.5 | 0.0653 |  |  | 
26 | QNTWCIPPWMCEVF [Phage-2306] |  |  | 0.0806 | 1.48 | 
27 | VEKWCIPAWMCQQS (tested as crude clonal phage supernatant) [Phage-2291] | 1.5 | 0.0698 |  |  | 
28 | AEKWCIPPWMCVND (tested as crude clonal phage supernatant) [Phage-2286] | 1.51 | 0.0683 |  |  | 
29 | NVKWCTPPWMCFLD (tested as crude clonal phage supernatant) [Phage-2296] | 1.5 | 0.0656 |  |  | 
30 | VQNWCIPAWMCEGK [Phage-2304] |  |  | 0.0686 | 1.48 | 
